The data set is described as follows: soluble on expression in E. coli; label from the status in PepcDB or PDB records.
With “MTDILIDNTATETVRTLIRAFPLVPVSQPPEQGSYLLAEHDTVSLRLVGEKSSVIVDFASGAAQYRRTKGGGELIAKAVNHTAHPTVWDATAGLGRDSFVLASLGLAVTAFEQHPAVACLLSDGIRRALLNPETQNTAAHINLHFGNAAEQMPALVQTQGKPDIVYLDPMYPERRKSAAVKKEMTYFHRLVGEAQDEAALLHTARQTAKKRVVVKRPRLGEHLAGQDPAYQYTGKSTRFDVYLPYGTDKGLEHHHHHH”, the “soluble on expression in E. coli” value is “soluble”. Consider “MEGLEAYDYHLPPEQIAQEGVEPRDMARLMVVYREGPFRVAHKRVRDLPEFLRPGDVLVFNESKVIPARLLARKPTGGKVEILLVRERSPGLWEALLGPARKAPPGTRLLLLSPKDLAPVPGLQAEVVAVEEDGVRLLRFQGDLVAHLEEVGEVPLPPYIKAKIPMERYQTVYARRPGSVAAPTAGLHFTPELLERLREMGVELRFLTLHVGPGTFRPVKGDPEKHEMHAEPYAIPEEVAEAVNRAKAEGRRVVAVGTTVVRALESAYREGVGVVAGEGETRLFIRPPYTFKVVDALFTNFHLPRSTLLMLVAAFLGRERTLEAYRLAVAEGYRFYSLGDAMLIL”, for which the “soluble on expression in E. coli” value is “soluble”. As for “MIVGEDQLWGRRALEFVDSVERLEAPALISRFESLIASCGFTAYIMAGLPSRNAGLPELTLANGWPRDWFDLYVSENFSAVDPVPRHGATTVHPFVWSDAPYDRDRDPAAHRVMTRAAEFGLVEGYCIPLHYDDGSAAISMAGKDPDLSPAARGAMQLVSIYAHSRLRALSRPKPIRRNRLTPRECEILQWAAQGKTAWEISVILCITERTVKFHLIEAARKLDAANRTAAVAKALTLGLIRL”, the “soluble on expression in E. coli” value is given as “not soluble”. In the case of “MSLEKKTANDVVTLARAQDRLTTLEYIEAIFEDFLEFHGDRYFADDLAVVGGVATLQGKPVTVVGIQKGRNLPENIERNFGSPNPEGYRKALRLMKQAEKFNRPVITFVNTAGAYCGIGAEERGEGEAIAQNLLEMSDLKVPIISVIIGEGGSGGALALAVADEVWMLEHTIYAVLSPEGFASILWKDGSRAKEAAELMKITATELKELAIVDKVIPEVMNGQPLEQAKINRMLQKAFISKLTELAKLDTETLLEKRYQRFRKYEGHHHHHH” it was “soluble”. In the case of “MNYSPKQGVRSHGLPHDPFKSSTVPRPIGWISTVSKDGKDNLAPYSQYQNLTWDPPMVMFAANQSVLGDHERKDTVKNAEETGWFVWNMATYDLREAVNLSSKALPPEEDEFEYAGVTKEACIEAPGYRVKESPVHFECEYVQTIRIPTGDPVSTVDIVIGRVAQVHIDDKVILDNGKLDIKSIKPIARLGYYDYTVVNEIFEMKAPAASKEELAGLEGRNFDNQSDEKR”, the “soluble on expression in E. coli” value is given as “not soluble”. On to “MSLKDQDIFELIEPSTDINDIIMPENTKELLENILKQQDKKVLERLHSWGIKSNKNIEAKIIFYGPAGTGKTMSALAMAKSMKKSVLSFDCSKILSKWVGESEQNVRKIFDTYKNIVQTCKQSPILLLNEADQFLSTRVDGSSGSDKMHNQMQNIFLEQIERFSGVIIATTNFLESLDSAFSRRFDYKIEFKKPDFKDRLKIWEKFLPKKALFEKDFDINILSNYELSGAQILMVVKNTALKVAVSKDGVFKIQDFIESIQKELNSSFDKSKIVGFEGHHHHHH”, for which the “soluble on expression in E. coli” value is listed as “soluble”. Take “GMLPRLCCLEKGPNGYGFHLHGEKGKLGQYIRLVEPGSPAEKAGLLAGDRLVEVNGENVEKETHQQVVSRIRAALNAVRLLVVDPEEDSFL”: the “soluble on expression in E. coli” value is “soluble”.

For “SASASTQPAALSAEQAKVVLAEVIQAFSAPENAVRMDEARDNACNDMGKMLQFVLPVATQIQQEVIKAYGFSCDGEGVLKFARLVKSYEAQDPEIASLSGKLKALFLPPMTLPPHGPAAGGSVAAS”, the “soluble on expression in E. coli” value is given as “soluble”.

Regarding “MGSDKIHHHHHHMKLMRIQEMEEYILSHGTVSLDELCQVFNVSKNTVRRDINKLTEKGAIEKVYGGVTSIEKTALVPFENRTIQHQDEKTKIAHYASRFIEDHDLVFIDSGTTTKSILDTLDPAKNVTILTNSLDIINAASALKNINLIIIGNNYKRKTRSFVGMDDPAMLDKYNINKAFMSATGTTLTHGLTNSDLLEYEIKKRISEKAKEVYLLADHSKFGKSTLLTYAPFDRLHCIVTSQPLDDEYTQYCNEHQIGIHLA”, the “soluble on expression in E. coli” value was “not soluble”.

These data come from the DeepSol protein solubility set.
